Read-outs that look alike come from different tables or passages of the source.
T1: human TIGIT expressed on cells (human, UniProt Q495A1 22-244)
T1 construct: whole, on cells; on Jurkat E6.1 cells transduced with human TIGIT, on Promega TIGIT Effector cells or on human primary T cells; the assay field says which; also called hTIGIT; Jurkat-hTIGIT
T1 sequence (looked up): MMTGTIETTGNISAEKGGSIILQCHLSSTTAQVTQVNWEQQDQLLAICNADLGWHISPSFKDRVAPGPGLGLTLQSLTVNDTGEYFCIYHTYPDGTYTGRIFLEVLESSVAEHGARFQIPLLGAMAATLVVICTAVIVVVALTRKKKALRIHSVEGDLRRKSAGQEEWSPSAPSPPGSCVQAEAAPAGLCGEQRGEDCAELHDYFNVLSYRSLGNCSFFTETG

T2: Human TIGIT-His (human, UniProt Q495A1 22-141, biotinylated in the ForteBio Fab assay)
T2 construct: bought (Creative Biomart); also called Biotinylated Human TIGIT HIS; TIGIT-His monomer; not shown: His tag
T2 sequence (looked up): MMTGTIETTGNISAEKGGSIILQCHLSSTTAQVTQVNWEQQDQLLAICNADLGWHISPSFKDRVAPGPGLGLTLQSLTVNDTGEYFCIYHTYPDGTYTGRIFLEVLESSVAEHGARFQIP

T3: mouse TIGIT expressed on cells (mouse, UniProt P86176 29-249)
T3 construct: whole, on cells; on Jurkat cells engineered to express mouse TIGIT; also called mTIGIT; Jurkat-mTIGIT
T3 sequence (looked up): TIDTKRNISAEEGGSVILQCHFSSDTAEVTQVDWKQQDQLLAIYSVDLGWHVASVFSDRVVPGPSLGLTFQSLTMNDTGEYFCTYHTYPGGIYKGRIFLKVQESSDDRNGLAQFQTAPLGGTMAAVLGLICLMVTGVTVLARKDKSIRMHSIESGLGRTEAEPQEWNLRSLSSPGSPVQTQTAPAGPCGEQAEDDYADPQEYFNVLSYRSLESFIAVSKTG

T4: Human TIGIT-Fc (human, UniProt Q495A1 22-141)
T4 construct: bought (Creative Biomart); also called TIGIT-Fc antigen; TIGIT-Fc fusion antigen; not shown: Fc part
T4 sequence (looked up): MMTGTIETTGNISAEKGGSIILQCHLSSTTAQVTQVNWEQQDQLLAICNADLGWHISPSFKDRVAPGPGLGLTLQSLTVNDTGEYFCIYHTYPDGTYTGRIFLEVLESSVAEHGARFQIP

T5: recombinant human TIGIT protein (construct not stated) (human, UniProt Q495A1 22-141, limits assumed)
T5 construct: also called hTIGIT (Creative Biomart); recombinant TIGIT protein
T5 sequence (looked up): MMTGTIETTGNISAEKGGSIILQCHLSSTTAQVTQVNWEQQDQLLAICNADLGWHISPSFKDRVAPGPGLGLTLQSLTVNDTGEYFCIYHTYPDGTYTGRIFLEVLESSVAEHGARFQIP

B1: anti-TIGIT antibody clone 29513 (IgG) (antibody, V domains shown)
VH: QVQLVQSGAEVKKPGSSVKVSCKASGGTFQNYAISWVRQAPGQGLEWMGVIVPIFGTANYAQKFQGRVTVTADESTSTAYMELSSLRSEDTAVYYCARLHLGQKAYYGMDVWGQGTTVTVSS
VL: DIQMTQSPSSLSASVGDRVTITCRASQSISSYLNWYQQKPGKAPKLLIYAASSLQSGVPSRFSGSGSGTDFTLTISSLQPEDFATYYCQQRYVFPPTFGGGTKVEIK
B2: 31C6 (MEB125.31C6.A1.205 VH4/VL1; comparative anti-TIGIT antibody, human IgG1) (antibody, V domains shown)
VH: EVQLVQSGAEVKKPGASVKVSCKASGYTFSSYVMHWVRQAPGQGLEWIGYIDPYNDGAKYAQKFQGRVTLTSDKSTSTVYMELSSLRSEDTAVYYCARGGPYGWYFDVWGQGTTVTVSS
VL: DIQMTQSPSSLSASVGDRVTITCRASEHIYSYLSWYQQKPGKAPKLLIYNAKTLAEGVPSRFSGSGSGTDFTLTISSLQPEDFATYYCQHHFGSPLTFGQGTRLEIK
notes: from WO2016/028656; made in HEK cells as human IgG1; also called 3106 (as the text prints it)
B3: anti-TIGIT antibody clone 29499 (IgG) (antibody, V domains shown)
VH: QLQLQESGPGLVKPSETLSLTCTVSGGSISSSRYYWAWIRQPPGKGLEWIGSIGTSGSTYYNPSLKSRVTISVDTSKNQFSLKLSSVTATDTAVYYCAIEGANFRDFGYVAFDIWGQGTMVTVSS
VL: EIVMTQSPATLSVSPGERATLSCRASQSVSSNLAWYQQKPGQAPRLLIYGASTRATGIPARFSGSGSGTEFTLTISSLQSEDFAVYYCQQSPPWPRTFGGGTKVEIK
B4: anti-TIGIT antibody clone 29523 (IgG) (antibody, V domains shown)
VH: EVQLVESGGGVVQPGRSLRLSCAASGFTFGSYYMHWVRQAPGKGLEWVAVIWPDGSNKLYADSVKGRFTISRDNSKNTLYLQMNSLRAEDTALYYCAKPVPKSRALDVWGQGTMVTVSS
VL: DIQLTQSPSSVSASVGDRVTITCRASQGISSWLAWYQQKPGKAPKLLIYGASSLQSGVPSRFSGSGSGTDFTLTISSLQPEDFATYYCQQAFYLPWTFGGGTKVEIK

What was measured:
[1] = target: T1, human TIGIT expressed on cells; experiment: flow cytometry, 100 nM Ab, Jurkat-hTIGIT vs untransfected
Description: (§1) Antibodies were incubated with the cells for 20 min at 4° C. in FACS buffer. […] Geometric mean fluorecence intensity was analysed using LSR BD Fortessa. Cell binding was recorded as the median florescence intensity of PE on the transfected line compared to the un-transfected line for each antibody (Table 3).

[2] = target: T1, human TIGIT expressed on cells; experiment: cell-based or functional assay
[3] = target: T2, Human TIGIT-His; experiment: MSD-SET, monovalent (Fab or mAb titrated, not said which)
Description: (§2) Briefly, solution equilibrium titrations (SET) were performed in PBS+0.1% IgG-Free BSA (PBSF) with antigen (TIGIT-His monomer) held constant at 10-100 pM and incubated with 3- to 5-fold serial dilutions of Fab or mAbs starting at 10 pM-10 nM. Antibodies (20 nM in PBS) were coated onto standard bind MSD-ECL plates overnight at 4° C. or at room temperature for 30 min. Plates were then blocked by BSA for 30 min with shaking at 700 rpm, followed by three washes with wash buffer (PBSF+0.05% Tween 20). SET samples were applied and incubated on the plates for 150s with shaking at 700 rpm followed by one wash. Antigen captured on a plate was detected with 250 ng/mL sulfotag-labeled streptavidin in PBSF by incubation on the plate for 3 min. The plates were washed three times with wash buffer and then read on the MSD Sector Imager 2400 instrument using 1× Read Buffer T with surfactant. The percent free antigen was plotted as a function of titrated antibody in Prism and fit to a quadratic equation to extract the KD. To improve throughput, liquid handling robots were used throughout MSD-SET experiments, including SET sample preparation.

[4] = target: T3, mouse TIGIT expressed on cells; experiment: flow cytometry, 100 nM Ab, Jurkat-mTIGIT vs untransfected
Description: as §1

[5] = target: T4, Human TIGIT-Fc; experiment: ForteBio BLI, IgG KD, avid
Description: Briefly, ForteBio affinity measurements were performed by loading IgGs on-line onto AHQ sensors. Sensors were equilibrated off-line in assay buffer for 30 min and then monitored on-line for 60 seconds for baseline establishment. Sensors with loaded IgGs were exposed to 100 nM antigen (human TIGIT-Fc, human TIGIT-His or cyno TIGIT-Fc) for 5 minutes, afterwards they were transferred to assay buffer for 5 min for off-rate measurement. Kinetics were analyzed using the 1:1 binding model.

[6] = target: T1, human TIGIT expressed on cells; experiment: flow cytometry, competition with CD155-His (5 ug/ml) on Jurkat-hTIGIT
[7] = target: T1, human TIGIT expressed on cells; experiment: cell-based or functional assay; remark: listed apart in the source
[8] = target: T2, Human TIGIT-His; experiment: MSD-SET, monovalent (Fab or mAb titrated, not said which); remark: listed apart in the source
Description: as §2

[9] = target: T1, human TIGIT expressed on cells; experiment: flow cytometry, competition with CD155-His (15 ug/ml) on Jurkat-hTIGIT
[10] = target: T1, human TIGIT expressed on cells; experiment: flow cytometry, primary CD8+ T cells of cancer patients' PBMC, MFI
Description: Cells were distributed at 1×10^5 cells per well. […] Then, cells were washed and incubated with the following antibodies and life viability dye (LVD) mix: anti-CD4-PercP-Cy5.5 (clone A161A1, BioLegend 357414); anti-CD8-BV510 (clone SK1, BD Bioscience 563919) and LVD efluor 520 (eBioscience 65-0867-14). Cells were washed and fixed and surface staining was quantified using BD LSR Fortessa. Flow cytometry data was analysed using FlowJo V10.1. TIGIT MFI on gated LVD-TIGIT+CD8+ cells was used to calculate EC50 values.

[11] = target: T1, human TIGIT expressed on cells; experiment: cell-based or functional assay; remark: listed apart in the source
[12] = target: T1, human TIGIT expressed on cells; experiment: flow cytometry on Jurkat-hTIGIT
Description: Antibodies were incubated with the cells for 20 min at 4° C. in FACS buffer. […] Fluorescence intensity was analysed using LSR BD Fortessa and cell binding was recorded as the median fluorescence intensity of PE in cells expressing TIGIT at their surface.
The half-maximal concentration of binding (EC50) to Jurkat-hTIGIT was calculated using a four-variable curve-fit equation in Prism.

[13] = target: T1, human TIGIT expressed on cells; experiment: cell-based or functional assay; remark: listed apart in the source
[14] = target: T1, human TIGIT expressed on cells; experiment: flow cytometry, primary CD8+ T cells of healthy human PBMC, MFI
Description: Isolated human PBMCs from healthy volunteers were analysed for binding by antagonist anti-TIGIT antibodies. Cells were distributed at 1×10⁵ cells per well. Cells were incubated with anti-CD16 (Clone 3G8, BioLegend 302002), CD32 (Clone FLI8.26, BD Bioscience 557333) and CD64 (BD Bioscience 555525) at room temperature for 10 min, and the indicated anti-human TIGIT antibody clones were directly added at a final concentration of 8; 4; 2; 1; 0.5; 0.25; 0.125; 0.062; 0.031; 0.016; 8×10⁻³ and 4×10⁻³ nM in FACS buffer and incubated for 20 min at 4° C. […] Then, cells were washed and incubated with the following antibodies and LVD mix: anti-CD4-PercP-Cy5.5 (clone A161A1, BioLegend 357414); anti-CD8-BV510 (clone SK1, BD Bioscience 563919) and LVD efluor 660 (eBioscience 65-0864-18).
The EC50 values for binding to CD8+ human primary T cells were calculated using the MFI signal on living TIGIT+CD8+ T cells.

[15] = target: T5, recombinant human TIGIT protein …; experiment: Biacore T200, IgG captured by anti-human Fc, antigen in solution, 1:1 kinetic model
Description: Biosensor analysis was conducted at 25° C. in a HBS-EP buffer system (10 mM HEPES pH 7.3, 150 mM NaCl, 3 mM EDTA, 0.05% Tween20) using Biacore T200 technology, CMS sensor chip (run at Novalix, France). The sample hotel was maintained at 8° C. Goat anti-human IgG capture antibody (Fcγ fragment specific, Jackson ImmunoResearch Laboratories) was immobilized (10000 RU) to both flow cells of the sensor chip using standard amine coupling chemistry. This surface type provided a format for reproducibly capturing fresh analysis antibody after each regeneration step. Flow cell 2 was used to analyse captured antibody while flow cell 1 was used as a reference flow cell. […] Two blank (buffer) injections also were run and used to assess and subtract system artefacts. The association (300 s) and dissociation (600 s) phases for all antigen concentrations were performed at a flow rate of 30 uL/min. The surface was regenerated with three sequential injections (15 s, 15 s and 60 s) of 10 mM glycine-HCl, pH 1.5. The obtained sensorgrams were fitted globally to a 1:1 model (assuming the same kinetic values for all applied concentrations).

Binder | FON (Fold Over Negative) [1] | increase of IFNg secretion over isotype control, human primary CD8+ T cells + CHO-TCR-CD155 [2] | Kd [3] | FON (Fold Over Negative) [4] | Kd [5] | IC50 [6] | Induction over Isotype control (fold change), luciferase, Jurkat-hTIGIT + CHO-TCR-CD155, 133 nM [7] | Kd [8] | also measured
B1 | 156 fold | 3.2 fold | 0.025 nM | 406 fold | 0.392 nM | 0.094 nM | 3.26 fold | 0.025 nM | –
B2 | – | – | – | – | – | – | – | – | Fold change of IC50 over IC50 of best clone (31282_up) [9]: 1.7 fold; IC50 [9]: 0.07 nM; EC50 [10]: 0.18 nM; Fold change of EC50 over EC50 of best clone (31282) [10]: 1.5 fold; EC50 (nM), IFNg, human primary CD8+ T cells [11]: 0.3 nM; Fold change of EC50 over EC50 of best clone (31282_wu) [11]: 2.3 fold; Induction over isotype control (fold change), IFNg, human primary CD8+ T cells + CD155 aAPC/CHO-K1 [11]: 1.6 fold; EC50 [12]: 0.13 nM; Fold change of EC50 over EC50 of best clone (31282_wu) [12]: 1.2 fold; EC50 (nM), luciferase, Jurkat-hTIGIT [13]: 5.3 nM; Fold change of EC50 over EC50 of best clone (31282_up) [13]: 1.6 fold; Induction over Isotype control (fold change), luciferase, Jurkat-hTIGIT + CD155 aAPC/CHO-K1 [13]: 6.7 fold; EC50 [14]: 0.39 nM; Fold change of EC50 over EC50 of best clone (31282_wu) [14]: 2 fold; Kd [15]: 0.067 nM; koff [15]: 0.000209 s⁻¹
B3 | 164 fold | 5.2 fold | 0.019 nM | 541 fold | 0.319 nM | 0.103 nM | 3.68 fold | 0.019 nM | –
B4 | 150 fold | – | 1.7 nM | 502 fold | 0.531 nM | 0.079 nM | 2.4 fold | 1.7 nM | –

Reference: patent US20200407445A1 (ITEOS THERAPEUTICS, published 2020)
